# Results as given in publication PMC7457611 (bioRxiv, 2020).
# Target: SARS-CoV-2 spike receptor-binding domain (RBD), residues 331-524 (SARS-CoV-2, early isolate GenBank …, UniProt P0DTC2)
# Assay: SPR
row,Binder,binding result
1,"C002 IgG (antibody, V domains shown) VH: EVQLVESGGGVVQPGRSLRLSCAASGFTFSIYGMHWVRQAPGKGLEWVAVISYDGSNKYYADSVKGRFTISRDNSKNTLYLQMNSLRAEDTAVYYCAKEGRPSDIVVVVAFDYWGQGTLVTVSS VL: not shown",binds
2,"C121 IgG (antibody, V domains shown) VH: not shown VL: QSALTQPASVSGSPGQSITISCTGTSSDVGSYNLVSWYQQHPGKAPKLMIYEGSKRPSGVSNRFSGSKSGNTASLTISGLQAEDEADYYCCSYAGSSTLVFGGGTKLTVL",binds
3,"C104 IgG (antibody, V domains shown) VH: QVQLQQWGAGLLKPSETLSLSCAVYGGSLSGYYWSWIRQPPGKGLEWIGEINHFGSTGYNPSLKSRVTISVDTSKSQFSVKLSSVTAADTAVYYCARKPLLYSNLSPGAFDIWGQGTMVTVSS VL: EIVLTQSPGTVSLSPGERATLSCWASQSVSASYLAWYQQKPGQAPRLLIYGASSRATGIPDRFSGSGSGTDFTLTISRLEPEDFAVYYCQQYGTTPRTFGGGTKVEIK",binds
4,"C105 IgG (antibody, V domains shown) VH: QVQLVESGGGLIQPGGSLRLSCAASGFTVSSNYMSWVRQAPGKGLEWVSVIYSGGSTYYADSVKGRFTISRDNSKNTLYLQMNSLRAEDTAVYYCARGEGWELPYDYWGQGTLVTVSS VL: QSALTQPPSASGSPGQSVTISCTGTSSDVGGYKYVSWYQQHPGKAPKLMIYEVSKRPSGVPDRFSGSKSGNTASLTVSGLQAEDEADYYCSSYEGSNNFVVFGGGTKLTVL",binds
5,"C110 IgG (antibody, V domains shown) VH: QVQLQQSGAEVKKPGESLKISCKGSGYSFTSYWIGWVRQMPGKGLEWMGIIYPGDSDTRYSPSFQGQVTISADKSISTAYMQWSSLKASDTAMYYCARSFRDDPRIAVAGPADAFDIWGQGTMVTVSS VL: DIQMTQSPSTLSASVGDRVTITCRASQSISYWLAWYQQKPGKAPKLLIYQASSLESGVPSRFSGSESGTEFTLTISSLQPDDFATYYCQQYNSYPYTFGQGTKLEIK",binds
6,"C119 IgG (antibody, V domains shown) VH: QVQLVQSGAEVKKPGASVKVSCKASGYTFTSYYMHWVRQAPGQGLEWMGIINPSGGSTSYAQKLQGRVTMTRDTSTSTVYMELSSLRSEDTAVYYCARANHETTMDTYYYYYYMDVWGKGTTVTVSS VL: QSALTQPASVSGSPGQSITISCTGTSSDVGGYKYVSWYQRHPGKAPKLMIYDVSNRPSGVSNRFSGSKSGNTASLTISGLQAEDEADYYCSSYTSSSTSVVFGGGTQLTVL",binds
